Where no end group is shown, it is not given here.
Experiments:
C. albicans, strain 820 = test: Radial diffusion assay in agarose gels, C. albicans; format: cell-based, Candida albicans; details: clear zone units
Procedure: (§1) Aliquots (66 μl) of each fraction were dried by vacuum centrifugation, and resuspended in approximately 6.6 μl of 0.01% acetic acid. […] samples of this concentrate were tested for antimicrobial activity against E. coli ML-35, L. monocytogenes, Strain EGD and C. albicans, strain 820 by radial diffusion and gel overlay techniques (Lehrer, R. I. et al. J Immunol Meth (1991) 137:167-173). Active fractions were further examined by acid-urea PAGE and SDS-PAGE. Prophenins emerged from the P10 column in fractions 38-43 (39.6 ml total volume), which contained a total of 18 mg protein by BCA analysis.
(§2) The radial diffusion assay in agarose gels as described above was also used to test the activity of the purified prophenins. Samples of 5 μL each were added to 3 mm wells in thin gels composed of 10 mM sodium phosphate, 30 mg/ml trypticase soy broth powder in 1% agarose and containing approximately 4×10^5 CFU/ml of mid-log phase organisms. After allowing 3 hours for the samples to diffuse into the underlayer gel, a nutrient-rich overlay gel was poured and the plates were incubated for 24 hours at 37° C. to allow surviving organisms to form microcolonies. The diameters of the clear zones were measured and expressed in "units" (10 units=1 mm) as described previously.

E. coli ML-35 = test: Radial diffusion assay in agarose gels, E. coli; format: cell-based; details: for inhibitory activity (FIG. 4a): E. coli ML-35, clear zone units
Procedure: as §1, §2

[1] = tested on: lipid polysaccharide (LPS) of the Gram-negative bacterium E. coli strain 0.55B5; test: Limulus amebocyte lysate (LAL) test for endotoxin binding; format: biochemical; details: for concentration giving complete inhibition of gelation / concentration giving complete inhibition of gelation, molar: LAL test; for LAL gel formation: peptide 0.63 μg/ml (.625 in Table 4), LPS 0.05 endotoxin unit/ml
Procedure: The prophenins of the invention were tested for their ability to bind the lipid polysaccharide (LPS) of the Gram-negative bacterium E. coli strain 0.55B5. The assay was the Limulus amebocyte lysate (LAL) test for endotoxins conducted in the presence and absence of the test compounds. The test was conducted using the procedure described in Sigma Technical Bulletin No. 210 as revised in December 1992 and published by Sigma Chemical Company, St. Louis, Mo.
The LAL test is based on the ability of LPS to effect gelation in the commercial reagent E-TOXATE™ which is prepared from the lysate of circulating amebocytes of the Horseshoe Crab Limulus polyphemus. As described in the technical bulletin, when exposed to minute quantities of LPS, the lysate increases in opacity as well as viscosity and may gel or clot depending on the concentration of endotoxin. The technical bulletin goes on to speculate that the mechanism appears analogous to the clotting of mammalian blood and involves the steps of activation of a trypsin-like preclotting enzymes by the LPS in the presence of calcium ion, followed by enzymic modifications of a "coagulogen" by proteolysis to produce a clottable protein. These steps are believed tied to the biologically active or "pyrogenic" portion of the molecule. It has been shown previously that detoxified LPS (or endotoxin) gives a negative LAL test.
Polymyxin B is a cyclic 1.2 kD acylated […] obtained from Bacillus polymyxa. Polymyxin B was used as a positive control since it is known to inhibit LPS-induced Limulus hemocyte lysate clotting.
In the assay, the amounts of prophenin-1 and polymyxin B (78% free polymyxin, Sigma) were preincubated in a final volume of 0.2 ml and the test mixtures contained LPS at a final concentration of 0.05 endotoxin unit/ml and E-TOXATE™ at the same concentration. The test compounds were incubated together with the LPS for 15 minutes before the E-TOXATE™ was added to a final volume (after E-TOXATE™ addition) of 0.2 ml. The tubes were then incubated for 60 minutes at 37° C. and examined for the formation of a gel.
The ability of fragments of prophenin-1 to bind LPS was also assayed. Prophenin-1 was digested with TLCK treated trypsin as described above, thus cleaving the protein C-terminal to the initial 4 arginines. The fragments were purified by RP-HPLC, and their identities were verified by ESI-MS and amino acid composition analysis. The three fragments were those obtained as described in Example 1 and are as follows: […]

[2] = tested on: L. monocytogenes, Strain EGD; test: Radial diffusion assay in agarose gels, L. monocytogenes; format: cell-based, Listeria monocytogenes
Procedure: as §1, §2

Molecule	inhibitory activity (FIG. 4c) (C. albicans, strain 820)	inhibitory activity (FIG. 4a) (E. coli ML-35)	concentration giving complete inhibition of gelation [1] [µg/mL]	concentration giving complete inhibition of gelation, molar [1]	LAL gel formation [1]	specificity for Gram-negative bacteria (E. coli ML-35; compared over E. coli, L. monocytogenes, C. albicans)	LPS binding / inactivation in words [1]	potency in binding LPS relative to polymyxin B sulfate, molar basis ([1]; 4.2/0.072)	concentrations at which some activity was shown ([2]; FIG. 4b)	inhibitory activity (FIG. 4b) ([2]; clear zone units)
HNP-1: human defensin (HNP-1), control	substantially noninhibitory									
PG-3: protegrin-3 (PG3), control (RGGGLCYCRRRFCVCVGR; ends and bridges not checked; cysteine pairing not given here; UniProt P32196 131-148, looked up) [reference compound]	successful antifungals	more inhibitory than HNP-1								
Polymyxin B [reference compound]			5	≈ 4.2 μM	++					
Prophenin-1: 79-residue proline-rich antimicrobial peptide purified from porcine leukocytes, mass 8,683, SEQ ID NO:1 (protein) AFPPPNVPGPRFPPPNFPGPRFPPPNFPGPRFPPPNFPGPRFPPPNFPGPPFPPPIFPGPWFPPPPPFRPPPFGPPRFP	substantially noninhibitory	comparable in inhibitory activity to PG3 and NP1	0.625	≈ 72 nM	0	highly specific for Gram-negative bacteria	more effective than the additive value of the subunits	approximately 60 fold	above 100 μg/ml	substantially less inhibitory

Reference: US5889152A, “Porphenins--antibiotic peptides” (Regents of the University of California, priority 1995, dated 1999)
